Consider 1 substance from paper PMC11686404.

By stoichiometry N is commonly meant the number of molecules, sites or subunits per partner or assembly.

The target of this assay is native BnFMO, flavin monooxygenase from Bacillus niacini (Bacillus niacini). The experiment in a line: cryo-EM structure.

Consider “native BnFMO, flavin monooxygenase from Bacillus niacini (enzyme)”, for which the stoichiometry N was determined as 3.
